According to patent US20160159862A1 (PROTAGONIST THERAPEUTICS, published 2016):
Bridge positions count the residues as written; N and C are the ends. Square brackets hold non-standard residues; d marks the D form. Ends that are not written are not given here. * marks the point of attachment. Phe(4-CF3) = N[C@@H](Cc1ccc(C(F)(F)F)cc1)C(=O)O; Phe(4-tBu) = CC(C)(C)c1ccc(C[C@H](N)C(=O)O)cc1; 2Nal = N[C@@H](Cc1ccc2ccccc2c1)C(=O)O; d1Nal = N[C@H](Cc1cccc2ccccc12)C(=O)O; d2Nal = N[C@H](Cc1ccc2ccccc2c1)C(=O)O; Oleoyl = CCCCCCCC/C=C\CCCCCCCC(=O)*; NMeR = CN[C@@H](CCCNC(=N)N)C(=O)O; Palmitoyl = CCCCCCCCCCCCCCCC(=O)*; hPhe = N[C@@H](CCc1ccccc1)C(=O)O; Myristoyl = CCCCCCCCCCCCCC(=O)*; NMeE = CN[C@@H](CCC(=O)O)C(=O)O; β3hE = N[C@@H](CCC(=O)O)CC(=O)O; Pen = CC(C)(S)[C@H](N)C(=O)O; dNMeK = CN[C@H](CCCCN)C(=O)O; Lauroyl = CCCCCCCCCCCC(=O)*; Isovaleryl = CC(C)CC(=O)*; Dab = NCC[C@H](N)C(=O)O; Dap = NC[C@H](N)C(=O)O; Hexanoyl = CCCCCC(=O)*

B1: SEQ ID NO 171 (peptide)
peptide: Ac-[Pen][NMeR]SDTL[Pen][Phe(4-tBu)][b‑H‑E][dK]
modifications: disulfide 1-7 (inferred); not fully specified (residue 10); also: isovaleric acid attached after k
B2: SEQ ID NO 172 (peptide)
peptide: Ac-[Pen][NMeR]SDTL[Pen][Phe(4-tBu)][b‑H‑E][dK]
modifications: disulfide 1-7 (inferred); not fully specified (residue 10); also: palmitoyl (palmitoyl chloride) attached after k
B3: SEQ ID NO 175 (peptide)
peptide: Ac-[Pen][NMeR]SDTL[Pen][Phe(4-tBu)][b‑H‑E][dK]
modifications: disulfide 1-7 (inferred); not fully specified (residue 10); also: myristoyl (myristoyl chloride) attached after k
B4: SEQ ID NO 62 (peptide)
peptide: Ac-[Pen][NMeR]SDTL[Pen]WE[Dab]
modifications: disulfide 1-7 (inferred); not fully specified (residue 10); printed as Ac-Pen-(N-Me-R)-S-D-T-L-Pen-W-E-Dab-Ac
B5: SEQ ID NO 173 (peptide)
peptide: Ac-[Pen][NMeR]SDTL[Pen][Phe(4-tBu)][b‑H‑E][dK]
modifications: disulfide 1-7 (inferred); not fully specified (residue 10); also: lauroyl (lauroyl chloride) attached after k
B6: SEQ ID NO 174 (peptide)
peptide: Ac-[Pen][NMeR]SDTL[Pen][Phe(4-tBu)][b‑H‑E][dK]
modifications: disulfide 1-7 (inferred); not fully specified (residue 10); also: oleoyl (oleoyl chloride) attached after k

Each binder was assayed against α4β7 integrin on human cells (human, UniProt P13612 34-1032; P26010 20-798) (assay: cell-based or functional assay).

α4β7 cell (Hu) IC50, > 50 nM:
Ac-[Pen][NMeR]SDTL[Pen]W[NMeE][dK]-NH2 (disulfide 1-7 (inferred); also: homodimer via DIG linker) [SEQ ID NO 31]
Isovaleryl-[Pen][NMeR]SDTL[Pen][Phe(4-tBu)][b‑H‑E][dK]-NH2 (disulfide 1-7 (inferred)) [SEQ ID NO 177]
Hexanoyl-[Pen][NMeR]SDTL[Pen][Phe(4-tBu)][b‑H‑E][dK]-NH2 (disulfide 1-7 (inferred)) [SEQ ID NO 176]
Ac-C[NMeR]SDTL[Pen]W[dK]-NH2 (disulfide 1-7 (inferred); also: homodimer via PEG13 linker) [SEQ ID NO 36]

α4β7 cell (Hu) IC50, > 10 nM:
B1
Ac-[dK]C[NMeR]SDTLCW[dK]-NH2 (disulfide 2-8 (inferred); also: dimer joined by DIG) [SEQ ID NO 4]
Ac-[Pen][NMeR]SDTL[Pen][2Nal][dE][dNMeK]-NH2 (disulfide 1-7 (inferred); also: homodimer via DIG linker) [SEQ ID NO 39]

α4β7 cell (Hu) IC50, > 1000 nM:
Oleoyl-[Pen][NMeR]SDTL[Pen][Phe(4-tBu)][β3hE][dK]-NH2 (disulfide 1-7 (inferred)) [SEQ ID NO 180]
Palmitoyl-[Pen][NMeR]SDTL[Pen][Phe(4-tBu)][β3hE][dK]-NH2 (disulfide 1-7 (inferred)) [SEQ ID NO 178]
Ac-[Pen][NMeR]SDTL[Pen]WE[Dab]-NH2 (disulfide 1-7 (inferred)) [SEQ ID NO 61]
B4
Ac-[Pen][NMeR]SDTL[Pen]WE[Dap] (disulfide 1-7 (inferred); also: Ac written after C-terminal Dap, place unclear) [SEQ ID NO 60]
Myristoyl-[Pen][NMeR]SDTL[Pen][Phe(4-tBu)][β3hE][dK]-NH2 (disulfide 1-7 (inferred)) [SEQ ID NO 181]
B6

α4β7 cell (Hu) IC50, > 25 nM:
Ac-[Pen][NMeR]SDTL[Pen][d1Nal]E[dK]-NH2 (disulfide 1-7 (inferred); also: homodimer via DIG linker) [SEQ ID NO 34]
Ac-[Pen][NMeR]SDTL[Pen][Phe(4-CF3)][dE][dK]-NH2 (disulfide 1-7 (inferred); also: homodimer via DIG linker) [SEQ ID NO 3]
Ac-[Pen][NMeR]SDTL[Pen][hPhe]E[dK]-NH2 (disulfide 1-7 (inferred); also: homodimer via DIG linker) [SEQ ID NO 45]

α4β7 cell (Hu) IC50, > 100000 nM:
Ac-[Pen][NMeR]SQIQ[Pen][Phe(4-tBu)][β3hE][dK]-NH2 (disulfide 1-7 (inferred); also: homodimer via IDA) [SEQ ID NO 190]
Ac-[Pen][NMeR]SDDL[Pen][Phe(4-tBu)][β3hE][dK]-NH2 (disulfide 1-7 (inferred); also: homodimer via IDA, Alexa-647 label on IDA) [SEQ ID NO 193]

α4β7 cell (Hu) IC50, > 10000 nM:
Ac-[Pen][NMeR]SDTL[Pen]WE[Dap]-NH2 (disulfide 1-7 (inferred)) [SEQ ID NO 59]
Ac-[Pen][NMeR]SQIQ[Pen][Phe(4-tBu)][β3hE][dK]-NH2 (disulfide 1-7 (inferred); also: homodimer via IDA, Alexa-647 label on IDA) [SEQ ID NO 192]
Ac-[Pen][NMeR]SQIQ[Pen][Phe(4-tBu)][β3hE][dK]-NH2 (disulfide 1-7 (inferred); also: homodimer via DIG) [SEQ ID NO 189]
Ac-[Pen][NMeR]SDDL[Pen][Phe(4-tBu)][β3hE][dK]-NH2 (disulfide 1-7 (inferred); also: homodimer via IDA) [SEQ ID NO 191]

α4β7 cell (Hu) IC50, ≤ 10 nM:
Ac-[Pen][NMeR]SDIL[Pen][Phe(4-tBu)][β3hE][dK]-NH2 (disulfide 1-7 (inferred); also: homodimer via IDA, Alexa-647 label on IDA) [SEQ ID NO 188]

α4β7 cell (Hu) IC50, > 100 nM:
Ac-[Pen][NMeR]SDTL[Pen][dF]E[dK]-NH2 (disulfide 1-7 (inferred); also: homodimer via DIG linker) [SEQ ID NO 30]
Ac-[Pen][NMeR]SDTL[Pen][d2Nal]E[dK]-NH2 (disulfide 1-7 (inferred); also: homodimer via DIG linker) [SEQ ID NO 35]
Lauroyl-[Pen][NMeR]SDTL[Pen][Phe(4-tBu)][β3hE][dK]-NH2 (disulfide 1-7 (inferred)) [SEQ ID NO 179]
Ac-C[NMeR]SDTL[Pen]W[dK]-NH2 (disulfide 1-7 (inferred); also: homodimer via PEG25 linker) [SEQ ID NO 37]
B5
Ac-[Pen][NMeR]SDIL[Pen][Phe(4-tBu)][β3hE][dK]-NH2 (disulfide 1-7 (inferred); also: homodimer via IDA) [SEQ ID NO 186]
Ac-[Pen][NMeR]SDTL[Pen]W[dE][Dap]-NH2 (disulfide 1-7 (inferred)) [SEQ ID NO 55]
Ac-[Pen][NMeR]SDTL[Pen][dF][dE][dK]-NH2 (disulfide 1-7 (inferred); also: homodimer via DIG) [SEQ ID NO 2]
Ac-[Pen][NMeR]SDTQ[Pen][Phe(4-tBu)][β3hE][dK]-NH2 (disulfide 1-7 (inferred); also: homodimer via IDA) [SEQ ID NO 187]

α4β7 cell (Hu) IC50, 965 nM:
B2

α4β7 cell (Hu) IC50, > 500 nM:
B3
Ac-[Pen][NMeR]SDTL[Pen]W[dE][Dab]-NH2 (disulfide 1-7 (inferred)) [SEQ ID NO 56]
